Experimental data published in publication PMC2844434.

Molecular target: Human pro-insulin fused to the Gal4 DNA binding domain (human)
Sequence (P01308 25-110): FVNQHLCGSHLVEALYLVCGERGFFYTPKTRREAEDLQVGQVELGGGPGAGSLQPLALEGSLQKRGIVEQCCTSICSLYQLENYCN

“Ligand domain of Schistosoma japonicum insulin receptor 2 (SjIR-2), Q7 to K399 (domain or fragment)” gave a glucose level of adult S. japonicum worms cultured 24 h with 20% anti-LD1 + anti-LD2 mouse antisera (medium with foetal bovine serum as source of insulin; endogenous receptors), against normal serum of 65 % reduction.

Substance “Ligand domain of Schistosoma japonicum insulin receptor 1 (SjIR-1), D59 to E411 (domain or fragment)” has a glucose level of adult S. japonicum worms cultured 24 h with 20% anti-LD1 + anti-LD2 mouse antisera (medium with foetal bovine serum as source of insulin; endogenous receptors), against normal serum of 65 % reduction.
